{"source": "the DeepSol protein solubility set"}
{"assay": "soluble on expression in E. coli; label from the status in PepcDB or PDB records"}
{"sequence": "MSLRRILHMTEKKKKIGFNIVKNDSTDGHGGFGVGALSLENISPVFVDVLEKTAFVDIGAMHARSTVEKGIKFLTNKDEVPNGKPFWLVWVTIERTATGAYYAGVTACEMTVDREIRRGYKSLPEHVNKMDKSMKRHIMVDHMDESSKKVLGTFLKEHNEAIWNESGEELRRALLSEEGHHHHHH", "soluble on expression in E. coli": "soluble"}
{"sequence": "MSLRRILITGANGFVGQILCSMLRQAGHHVIALVGAESALSSHADESVRCDIRDASGLEQALCRAAPTHVVHLAAITHVPTSFNNPVLTWQTNVMGSVNLLQALQRSAPEAFVLFVSSSEVYGETFKQGTALGEDSACKPMNPYAASKLAAEAAFNEYFRQGRKGIVVRPFNHIGARQSPDFATASFARQIALIEAGKQAPQLKVGNLQAARDFLDVHDVCDAYVALLQLADEQERYPGCLNICRGEPTSLQTLLTQLMALSSSVIEVTIDPDRMRPSDIPSAFGNNSAMRCATGWKPKTKLDDTLEALLNYWRHEVISAEGHHHHHH", "soluble on expression in E. coli": "soluble"}
{"sequence": "MSLRSEQEMMDIFLDFALNDERIRLVTLEGSRTNRNIPPDNFQDYDISYFVTDVESFKENDQWLEIFGKRIMMQKPEDMELFPPELGNWFSYIILFEDGNKLDLTLIPIREAEDYFANNDGLVKVLLDKDSFINYKVTPNDRQYWIKRPTAREFDDCCNEFWMVSTYVVKGLARNEILFAIDHLNEIVRPNLLRMMAWHIASQKGYSFSMGKNYKFMKRYLSNKEWEELMSTYSVNGYQEMWKSLFTCYALFRKYSKAVSEGLAYKYPDYDEGITKYTEGIYCSVKEGHHHHHH", "soluble on expression in E. coli": "soluble"}
{"sequence": "MSLRSYDGQLVYNPVEENGVMVGQTVYKMNGSTLANYMKYNYKYDDNKRMIESETLKWNSTKEEWEKDLRINYTYEGKTVTTNYYKWNNKKRAYVLVPEMTVTMDNTNEGHHHHHH", "soluble on expression in E. coli": "soluble"}
{"sequence": "MSLRTLAVETSCDETALAIYDDQKGVLGNVILSQAVVHSPFGGVVPELSAREHTRNILPIFDRLLKESRINLEEIDFISFTLTPGLILSLVVGVAFAKALAYEYRKPLVPVHHLEGHIYSVFLEKKVEYPFLALIISGGHTDLYLVRDFGRYDFLGGTLDDAVGEAYDKVAKMLGLGYPGGPIIDRLAKEGKKLYPLPKPLMEEGNLNFSFSGLKTAILNLLKKEKNVRKEDIAYSFQETVVEILLEKSLWAMKKTGIKRLVVVGGVSANSRLREVFKKASQEYGFELYIPHPSLSTDNALMIAYAGMERFKRGVVAPLDVNPQPNIPLEEFGRIWTEGHHHHHH", "soluble on expression in E. coli": "soluble"}
{"sequence": "MSLRTTIADVAQAAGVSVSTVSRALRGLDRVSPETRERIEQEAKRLHFSFSKSASSLASGKTMRVAVLLPNEISSWFNAHAFEGIYEVMSKAGYDIVPYIVWTQDDLDAFFQNLPGNRNVDAVIEASFDFDEAKKQVLGNLTIPVVGMNAPSTHGLDAGVAIDDEASMATIVRFLKSLGHKTLAYIEQPINTTPFVCSDRLRKKGFSEASQACGYADEDIIVMPSLSHIDARSEQDIYSGIVAQLLSAPKQPTAICVSVDAVAAPLLKELRRMGWRVPQDVSLVGFDDDDTATALDLTTMHQDPAEIGRIAARKTLALLNGETLDEPFTVMPTSLVLRGTTERVSEGHHHHHH", "soluble on expression in E. coli": "soluble"}
{"sequence": "MSLRVTEPEMDQNLRDAIRMVINELTSSSGEVSQWTLREITARYRNLYRIKDPFVLDYYINRYMSGLRSVYPLYINDAIERIMSNGYDRPVIVQYNGKYYETNITLKREDLDSIAIRVSQMMGKKISSGSPIAYGNLQNFRSIVTFGDDVTPFGSSLYLERRHVVADPEAMSSMKDPMVSAYLIMALENMRSIMIIGPDSPMKIAIIYHLIRMIGSEKKIAYIGENGRFDFPRNIVYMMPRERTVFSSEISRTDLINTALRQRPDFIVVNGLTARELPAAVQAITTGHPTLSSMDIDSIENFSSLFSDPSTGLSKDMISLFDVVIEIADNGEYVKAIYEYDRLEGQEVLYNVPFSADRKRKLVFSGYSGIFRRMSKVIGEDSFRQALENRMKELDGGEGHHHHHH", "soluble on expression in E. coli": "soluble"}
{"sequence": "MSLSAPYRKQIISNAHNKPSLFSKIKTFFTQKDSARVSPRNNVANKQPRNESFNRRISSMPGGYFHSEISPDSTVNRSVVVSAVGEARNDIENKEEEYDETHETNISNAKLANFFSKKGNEPLSEIEIEGVMSLLQKSSKSMITSEGHHHHHH", "soluble on expression in E. coli": "soluble"}
{"sequence": "MSLSASRAIKERDSRSHIKVLFPSMPYVYVSRLINEGLVRLAENDQGWEYSLATDCPKLSPTLYECTLRQGVRFQDGTPFNADSVIKNFDYFLAQPFNYTDIHRSLKAVEKVSPYKIRLILSQPYGMLFRDLARIFFYSDAYLRQYGWGGAETGANIKSAGSYGLGPYILVEGMITGRKQTPKAILKANPYYWEKGFPKIETITVFTELETQSALESLLEREGELDFMPIPFNKKIETLLSPYTKLIITPSTNNFTIYFNLHKHDSKVFDPKVRQALNCALNQENLLNFTYKKEGRPNTGAYTHEDCPFSLRELHEILRGLKFKVATQDSLLFLWRGIEYQLSRYGVELEFLLTTSEKEIYDLAQKNHQQTQEWDMLIQGTQDWYGRHPWPIFIRYQEGNPWSFVTGDIKMREAINQLFRHEQGTPEFEALCQTIIQRAKEKAYMLFIPTPHAVYGMNKELHFTPHGIGLQPLWKAEVTSEHWSLRGDKPYPESLQKPILPQREGHHHHHH", "soluble on expression in E. coli": "not soluble"}
{"sequence": "MSLSDDDVDNVIEVARDSWKWTYKDIYSDEFIENWISEKYSKEKLLNEITKSQLNLDLVFLGSFHESKLIGFIELKISSSKAELLRLYLRPEYTHRGVGRILLSEAEELVKKRDVEECILYVHKKNYIATSFYKKNGFQVKDIYGDDLIMIKRYKVEGHHHHHH", "soluble on expression in E. coli": "not soluble"}
{"sequence": "MSLSEIKRKFDAVSGKYDEQRRKFIPCFDDFYGVSVSIASVDTENPDILDLGAGTGLLSAFLMEKYPEATFTLVDMSEKMLEIAKNRFRGNLKVKYIEADYSKYDFEEKYDMVVSALSIHHLEDEDKKELYKRSYSILKESGIFINADLVHGETAFIENLNKTIWRQYVENSGLTEEEIAAGYERSKLDKDIEMNQQLNWLKEAGFRDVSCIYKYYQFAVMFGRKTEGHHHHHH", "soluble on expression in E. coli": "soluble"}
{"sequence": "MSLSELIKRLITAMTLCLTALLVHAQEWTKEDSLRLRKLLDSDQELNLNQDAVRQIDFGSAVGTPRMSVEKKWMLPDESLPEALPKPKVVLSLMPYKANTPYNWDPVFQKKIRMDKNTWRGDPHYEMRHQRSYSNWAHNPMAGGVRKSLEEIRASGVRFRQLSERANGMMVNSVVMDSPIPLFGGSGVYINGGTIGGLDLMAVFTKNFWDKKGKERRERTLEVLRTYGDSTTVLINRPIEQIAREGHHHHHH", "soluble on expression in E. coli": "not soluble"}
{"sequence": "MSLSENPGATAQILSYNHVLSQLNREKTDVTEAKSLLNTAETSLSSMSTSMNRVNALVLQAINGTSDKDNMSQSAEEIKGLLDVLISVANSEDDGRYVFSGSSTSVKPFTTDKTTGEIIYNGTTENKKFRVTDTLEVEVFHDGSAMTDVFNNIQKIVDAMKSGDKDALSALQETNSKNIEIITNSMTNIGGQKNGVTAYDNVLSSKIVDFSERKSNVEEVNMPEAVSNLNKTSIAYQAALQSSVMVQKLSILNYMEGHHHHHH", "soluble on expression in E. coli": "soluble"}
{"sequence": "MSLSESAPTPRRERVIVGMSGGVDSSVSALLLLQQGYQVEGLFMKNWDEDDGTEYCTAREDLADAQAVCDRIGIKLHTANFAAEYWDNVFEHFLAEYKAGRTPNPDILCNREIKFKAFLDYALMLGADLIATGHYVRRRDRDGRTELLKGLDPNKDQSYFLHAVGGEQIARSLFPVGELEKPEVRAIAEKHGLATAKKKDSTGICFIGERRFTDFLKQYLPAQPGDIETTEGKVIGRHSGLMYHTIGQRQGLGIGGLKEAGDDPWYVLGKDLQRNVLLVGQGNDHPLLFSRALLASRIYWVNPVELERPRRLRAKVRYRQSDQDCVLEKTAEGYRAVFDEPQRAVTPGQSVVFYDGDVCLGGGVIETAEAWDFGGRPEGHHHHHH", "soluble on expression in E. coli": "soluble"}
{"sequence": "MSLSETTQTSQSLYQALWNSADVLRSKMDANDYKSYLLGMVFYKYLSDKMLFFVAETMEEETESLDEALAVYRKYYEDEETHEDLLAVITDEMSYAIHPDLTFTALVERVNDGSFQLEDLAQGFRDIEQSDELYENLFEDIDLYSKKLGATPQKQNQTVAAVMKELAVLDVAGHAGDMLGDAYEYLIGQFATDSGKKAGEFYTPQPVAKLMTQIAFLGREDKQGFTLYDATMGSGSLLLNAKRYSRQPQTVVYFGQELNTSTYNLARMNMILHGVPIENQFLHNADTLDEDWPTQEPTNFDGVLMNPPYSAKWSASSGFMDDPRFSPFGKLAPKSKADFAFLLHGYYHLKQDNGVMAIVLPHGVLFRGNAEGTIRKALLEEGAIDTVIGLPANIFFNTSIPTTVIILKKNRTNRDVYFIDASKEFDKGKNQNIMTDAHIEKILNAYKSREDIDKFAHLASFEEIVENDYNLNIPRYVDTFEEEEVEPLTEIVAKINQTNATIESQTASLLDMLGQLHGTTPEADEELKAFVKAFKGEGHHHHHH", "soluble on expression in E. coli": "soluble"}
{"sequence": "MSLSFKNNLKLLLSTQNVLIYILNSEEERLEYKIHLMIRQNIKKTIYCWNFIDGYYNNPNYLNKAIRNPLQAIEFIEQLNFPTSTIFFLKDFHVFINDISVIRKIKNLSRFLKQANSSIIISASEMQVPSLLKDFITVLEFPLPNYEEINLELHRLFKIMNVDSSIYSEYFHDLTLAYRGFSIEKIRISIAKLLTSNLSSTHLIKNILYEKRQLIEQTDEGHHHHHH", "soluble on expression in E. coli": "not soluble"}
{"sequence": "MSLSFPQLHTVTSYSLLSSTVRIRSYVKQAKALGYQTLAITDINVLHGAVEFYEACQEAGIQPIIGLRLEYTPAEKEGHSELLLFAKNLKGYQQLMQLSSSKMTTEGPFYLAEHQSLLSDLFAVTLSAKGEVAQTFFEDEQQAVHAFQQLASYFDPQSLFVEHSFSMNQQRNPALFSFYQREQLPGVALQEVRHLTREEGFAVTVLESIKENNQLNITSQTPEIEGLNYLREAETTMEQMLQEGHHHHHH", "soluble on expression in E. coli": "not soluble"}
{"sequence": "MSLSFSAKVKGEICRYIDISKEEALAQISAIMKVCGTLAFSGRQISFKMTTENPASARLMFTILKDYFDIHAKLMVKKSNSLKKNNIYMVVVTEEMGVKKLLEITGILREIDGIMSLDYHIDENLVDTEEKKKAYIRGAFIGGGSISNPEKTYHLEFVTHSQEYAEDLGKLINTFGLKAKVIQRKNSYIVYIKEGEQIVDLLNIIGAHTALLELENIRIMKEMRNNVNRLVNCETANLSKTVNAAVRQVESIKLIEREIGLARLPKNLREVAELRLTYPEESLKELGEMLEPPVGKSGVNHRLRKIEKIAEELRTGNEGHHHHHH", "soluble on expression in E. coli": "soluble"}
{"sequence": "MSLSGCNGVPTSYVSDPVYSQAFVVTSGAPLPMLLMASAIQWNEDYAVTAKHTPFLRNVVHEGLGDVVFFKHKASSVPHWRQYVPGEAVTAVGFNSFMMPMQGKGHALSSLVRLEGTPGSVFYSVHDGPITKGMSGGPVFADDGKVVGINVAIIPTDEINAGKRPDLVGKDRISVFMSFSEIDKEWRRYQYLLAHKAKPKAPAAVKGYVAVAAKEGHHHHHH", "soluble on expression in E. coli": "soluble"}
{"sequence": "MSLSGLHQADLEMVAAAYAKSNATIVTYGMGITQHNEGTANVRLICDLLMLRGNLGKPGAGICPLRGHSNVQGNRTVGITEKPSPAFLDKLQQTFGFTPPAHHGHDAVQAMQAMIAGSAKALLCLGGNFAVALPDPGQCFPAMGKLDLSVHIATKLNRSHLLVARETFLFPCLGRTELDMQDGLRQAITVEDSMSMVHASAGKLAPASEFLLSEPAIVAGMARATLPGSRVPWLELVADYDKIRDLIEQTVPGFDDYNARIRVPGGFRMPLAAAERQWLTPSGKAEFFVFPGLHEDKEVDGADVLRLITLRSHDQYNTTIYALDDRYRGVFGRRDVLFISPADLAARGLAHGDLVDIETVIGGRRLRYEKITAIEYKIANGTVGAYYPEANRLVPLDYLDVDSGTPSYKSVPVRVLRSSPAEGHHHHHH", "soluble on expression in E. coli": "not soluble"}
